Experimental data: patent publication US20210094988A1 (UNIVERSITY OF FLORIDA RESEARCH FOUNDATION, published 2021)

Target: the molecule itself
Assay: X-ray crystallography, homodimer in the crystal

B1: recombinant SP-free Coprinus comatus Y3 protein (monomer) (other)
chain: QDPLSCYDNFGNRDVAACARFIDDFCDTLTPNIYRPRDNGQRCYVVNGHKCDFTVFNTNNGGSPIRASTPNCKTVLRAAANRCPTGGRGKINPSAPFLFAIDPNDGDCSTDF
modifications: pyroglutamic acid (PCA) formed from Gln19; four intramolecular disulfide bridges Cys24-Cys101, Cys36-Cys69, Cys61-Cys126, Cys44-Cys90
notes: also called recombinant Y3; mature recombinant Y3 protein
B1: binds.
